Patent US20160303258A1
Where no end group is shown, it is not given here. The star is where a group is joined. DOTA = O=C(O)CN1CCN(CC(=O)O)CCN(CC(=O)*)CCN(CC(=O)O)CC1; Ahx = NCCCCCC(=O)O

B1: [68Ga]MLN6907 DP (drug product), Formula (VIa) (peptide)
peptide: {DOTA-Ahx}-CCELCCNPACAGCY
modifications: ends and bridges not checked; also: 68Ga complexed by DOTA, cyclised (places not given here)

Tests used:
[1] = target: guanylyl cyclase C (GCC) (human), P25092; assay: in vivo competitive binding study with [68Ga]MLN6907 in HEK-293 GCC Clone 2 tumor-bearing mice, model-derived
Sequence of guanylyl cyclase C (GCC) (human), P25092 (P25092 24-1073 limits assumed): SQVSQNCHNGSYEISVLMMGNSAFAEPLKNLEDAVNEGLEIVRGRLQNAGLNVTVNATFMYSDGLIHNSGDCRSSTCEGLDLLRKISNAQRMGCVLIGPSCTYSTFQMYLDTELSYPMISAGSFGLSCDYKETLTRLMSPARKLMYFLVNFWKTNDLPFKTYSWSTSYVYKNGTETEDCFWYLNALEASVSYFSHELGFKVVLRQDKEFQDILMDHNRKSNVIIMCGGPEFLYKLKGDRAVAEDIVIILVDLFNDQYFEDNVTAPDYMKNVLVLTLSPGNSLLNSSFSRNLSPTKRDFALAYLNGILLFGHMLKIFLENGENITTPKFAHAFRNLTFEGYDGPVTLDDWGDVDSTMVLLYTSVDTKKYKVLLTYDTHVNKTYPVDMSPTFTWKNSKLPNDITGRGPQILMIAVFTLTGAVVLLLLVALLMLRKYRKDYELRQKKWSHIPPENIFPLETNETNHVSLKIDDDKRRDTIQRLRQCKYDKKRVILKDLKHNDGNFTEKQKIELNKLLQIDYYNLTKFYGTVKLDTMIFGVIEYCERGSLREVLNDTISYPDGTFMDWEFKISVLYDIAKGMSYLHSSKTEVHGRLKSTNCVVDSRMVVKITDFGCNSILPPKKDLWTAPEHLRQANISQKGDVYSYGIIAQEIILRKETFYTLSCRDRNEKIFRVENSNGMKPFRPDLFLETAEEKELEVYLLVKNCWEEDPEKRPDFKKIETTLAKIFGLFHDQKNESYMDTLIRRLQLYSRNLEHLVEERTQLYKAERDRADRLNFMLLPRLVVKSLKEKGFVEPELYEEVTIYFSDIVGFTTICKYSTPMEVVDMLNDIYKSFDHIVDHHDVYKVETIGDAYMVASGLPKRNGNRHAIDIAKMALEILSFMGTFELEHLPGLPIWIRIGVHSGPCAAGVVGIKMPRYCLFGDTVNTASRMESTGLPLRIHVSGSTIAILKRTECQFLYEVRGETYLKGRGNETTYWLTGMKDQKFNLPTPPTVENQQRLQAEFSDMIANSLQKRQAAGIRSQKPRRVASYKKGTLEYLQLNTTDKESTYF

[2] = target: guanylyl cyclase C (GCC) (human), P25092; assay: in vivo competitive binding against [68Ga]MLN6907 DP in tumor models with different GCC expression levels; semi-mechanistic model
[3] = target: guanylyl cyclase C (GCC) (human), P25092; assay: in vitro competitive binding assay with HEK-293 GCC clone 2 cells (Indium-111 used as surrogate label; FIG. 13)
[4] = target: guanylyl cyclase C (GCC) (human), P25092; assay: competitive binding against [111In]MLN6907 on HEK-293 GCC Clone 2 cells; DSP without chelation reaction conditions
[5] = target: guanylyl cyclase C (GCC) (human), P25092; assay: competitive binding against [111In]MLN6907 on HEK-293 GCC Clone 2 cells; DSP treated with chelation reaction conditions (acetone:HCl, about 100 C, 10 min)

| Binder | Bmax (antigen surface density, HEK-293 GCC Clone 2) [1] | EC50 [2] [nM] | Kd [3] [nM] | IC50 [4] [nM] | IC50 [5] [nM] |
| --- | --- | --- | --- | --- | --- |
| B1 | 14000 | – | – | – | – |
| CCELCCNPACAGCY (modifications not checked) [MLN6907 DSP (drug substance precursor), Formula (VI): DOTA-Ahx-STp(5-18), not radiolabeled] | – | 97.1 to 5660 | 3.2 | 4.59 | 4.75 |
